Data on 4 substances can be found in publication PMC6305486.

The target in test [1] is GST-fused e5-FtsB_(25–103) E68A/k5-FtsL_(64–121) complex (E. coli) (UniProt P0A6S5). Description: BLI; BLItz; GST-fused FtsB proteins or GST-e5-FtsB/k5-FtsL complexes immobilised on AR2G biosensor by amine coupling; FtsQ_(50–276) (WT or Y248A) in solution, 0.1–80 μM; running buffer 20 mM Tris-HCl pH 8.0, 200 mM NaCl; equilibrium analysis of points at 100 s.
In test [2] the target is GST-fused e5-FtsB_(25–103)/k5-FtsL_(64–121) complex (WT) (E. coli) (UniProt P0A6S5). The test is described as above.
Test [3] deals with e5-FtsB_(25–103)/k5-FtsL_(64–121) complex (E. coli) (UniProt P0A6S5). Description: SEC; analytical gel filtration, Superdex 200 10/300 GL, buffer B (20 mM Tris-HCl pH 8.0, 200 mM NaCl), 0.5 mL/min; high concentrations (101–370 μM); apparent Stokes radius compared with radii calculated from models.
Test [4] shares this target. Description: SEC; analytical gel filtration, Superdex 200 10/300 GL, buffer B (20 mM Tris-HCl pH 8.0, 200 mM NaCl), 0.5 mL/min; low concentrations (6.8–22.2 μM); apparent Stokes radius compared with radii calculated from models.
The target in test [5] is FtsQ_(50–276) (UniProt P06136). Description: BLI. As to conditions: GST-e5-FtsB (mutant) in complex with k5-FtsL immobilized; FtsQ analyte 0-80 µM; parent: 0.24 ± 0.01.
Chain of FtsQ_(50–276) (UniProt P06136) (P06136 whole entry, looked up, tested part not stated): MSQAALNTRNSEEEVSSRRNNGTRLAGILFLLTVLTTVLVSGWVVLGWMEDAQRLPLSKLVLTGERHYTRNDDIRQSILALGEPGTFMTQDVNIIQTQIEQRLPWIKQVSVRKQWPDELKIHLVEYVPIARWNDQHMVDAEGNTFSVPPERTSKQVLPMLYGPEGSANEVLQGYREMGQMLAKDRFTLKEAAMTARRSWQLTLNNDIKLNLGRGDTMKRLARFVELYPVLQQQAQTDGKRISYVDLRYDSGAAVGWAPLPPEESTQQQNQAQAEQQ

Chain of FtsQ_(50–276) (from UniProt P06136 50-276) (domain or fragment) (P06136 50-276): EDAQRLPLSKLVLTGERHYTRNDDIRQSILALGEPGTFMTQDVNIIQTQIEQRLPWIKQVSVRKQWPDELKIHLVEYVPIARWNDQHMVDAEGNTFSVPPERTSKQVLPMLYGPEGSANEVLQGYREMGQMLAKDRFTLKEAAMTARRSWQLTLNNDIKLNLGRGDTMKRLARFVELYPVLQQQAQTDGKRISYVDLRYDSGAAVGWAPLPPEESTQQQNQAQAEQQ

Substance “FtsQ_(50–276) (from UniProt P06136 50-276) (domain or fragment)” had a fold reduction of affinity against WT in test [1] of 10 fold. Further, the Kd (commonly a measure of binding affinity in units of concentration) in test [2] amounted to 0.24 µM. Besides, in test [3], the stoichiometry N (FtsQ:FtsB:FtsL ratio (1:1:1)) was 1 and the stoichiometry N (FtsQ:FtsB:FtsL ratio (2:2:2)) was 1. Also, in test [4], the stoichiometry N (FtsQ:FtsB:FtsL ratio (1:1:1)) was 1 and the stoichiometry N (FtsQ:FtsB:FtsL ratio (2:2:2)) is 1.

As to “GST-fused e5-FtsB_(25–103)/k5-FtsL_(64–121) complex (WT) (from UniProt P0A6S5;P0AEN4) E69R”, in test [5], the Kd is more than 100 µM.

For the substance “GST-fused e5-FtsB_(25–103)/k5-FtsL_(64–121) complex (WT) (from UniProt P0A6S5;P0AEN4) E82R”, the Kd in test [5] was more than 100 µM.

As to “GST-fused e5-FtsB_(25–103)/k5-FtsL_(64–121) complex (WT) (from UniProt P0A6S5;P0AEN4) R72E”, in test [5], the Kd is more than 100 µM.
